Drawing on patent publication US10472401B2, “Peptides and combination of peptides for use in immunotherapy against ovarian cancer and other cancers” (immatics biotechnologies GmbH, priority 2015, dated 2019), this text covers Peptide exchange for 70 substances.

This assay has as its target HLA-A*02:01 (Homo sapiens, UniProt P04439, D140Y/D185E/D98H/E176V/E277Q/G131W/G231S/I119V/I121R/I166T/I218V/L300P/L318F/N151K/N90K/P208A/P217A/Q86G/Q94H/R138H/R169H/T345S). Nature of the assay: MHC binding assay (UV-ligand exchange, ELISA of stabilized MHC complexes). The conditions noted are these: MHC class I binding score; binding to HLA-A*02:01 ranged by peptide exchange yield (UV-ligand exchange, ELISA). Summed up: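 Peptide-MHC complexes made by UV-ligand exchange, cleaving a UV-sensitive placeholder peptide and replacing it with the test peptide. Exchange yield measured by ELISA: streptavidin-captured monomers (diluted 100-fold, 1 h, 37 °C) detected with HRP anti-β2m and TMB, absorbance at 450 nm.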
For orientation: ELISA stands for enzyme-linked immunosorbent assay.
For the substance “220 (LLQKFVPEI; listed as Homo sapiens) [compound 220]”, the Peptide exchange result was “″++″ (≥20% = ++)”.
Regarding “221 (ALYEEGLLL; listed as Homo sapiens) [compound 221]”, the Peptide exchange result is given as “″++″ (≥20% = ++)”.
Regarding “222 (NLIENVQRL; listed as Homo sapiens) [compound 222]”, the Peptide exchange entry is on record as “″++″ (≥20% = ++)”.
Turning to “223 (ALLENIALYL; listed as Homo sapiens) [compound 223]”, the Peptide exchange result is reported as “″+++″ (≥50% = +++)”.
The entry for “224 (TLIDAQWVL; listed as Homo sapiens) [compound 224]” is “″+++″ (≥50% = +++)”.
Take “225 (SLLKVLPAL; listed as Homo sapiens) [compound 225]”: the Peptide exchange entry was “″+++″ (≥50% = +++)”.
Consider “226 (MLYVVPIYL; listed as Homo sapiens) [compound 226]”, for which the Peptide exchange result is reported as “″++″ (≥20% = ++)”.
“227 (ALMNTLLYL; listed as Homo sapiens) [compound 227]”: the Peptide exchange result is listed as “″++″ (≥20% = ++)”.
In the case of “228 (AMQEYIAVV; listed as Homo sapiens) [compound 228]”, the Peptide exchange result is “″++″ (≥20% = ++)”.
With “229 (RLPGPLGTV; listed as Homo sapiens) [compound 229]”, the Peptide exchange entry is on record as “″++″ (≥20% = ++)”.
The entry for “230 (ILVDWLVEV; listed as Homo sapiens) [compound 230]” is “″+″ (≥10% = +)”.
“231 (FLSPQQPPLLL; listed as Homo sapiens) [compound 231]”: the Peptide exchange entry was “″++″ (≥20% = ++)”.
Turning to “232 (ALLEAQDVELYL; listed as Homo sapiens) [compound 232]”, the Peptide exchange result was “″++″ (≥20% = ++)”.
In the case of “233 (VLSETLYEL; listed as Homo sapiens) [compound 233]”, the Peptide exchange result is on record as “″++″ (≥20% = ++)”.
“234 (ALMEDTGRQML; listed as Homo sapiens) [compound 234]”: the Peptide exchange result was “″++″ (≥20% = ++)”.
The entry for “235 (YLNDLHEVLL; listed as Homo sapiens) [compound 235]” is “″++++″ (≥75% = ++++)”; for “236 (GLLEAKVSL; listed as Homo sapiens) [compound 236]” it is “″+++″ (≥50% = +++)”.
The result for “237 (ALLEASGTLLL; listed as Homo sapiens) [compound 237]” reads “″++++″ (≥75% = ++++)”; that for “238 (YLISFQTHI; listed as Homo sapiens) [compound 238]”, “″+++″ (≥50% = +++)”; that for “239 (AAFAGKLLSV; listed as Homo sapiens) [compound 239]”, “″+++″ (≥50% = +++)”.
The entry for “240 (ILLEQAFYL; listed as Homo sapiens) [compound 240]” is “″+++″ (≥50% = +++)”; for “241 (SLVEVNPAYSV; listed as Homo sapiens) [compound 241]” it is “″+++″ (≥50% = +++)”.
As to “242 (AIAYILQGV; listed as Homo sapiens) [compound 242]”, the Peptide exchange entry is reported as “″++″ (≥20% = ++)”.
The result for “243 (LLLNELPSV; listed as Homo sapiens) [compound 243]” reads “″+++″ (≥50% = +++)”.
The entry for “244 (SLFGGTEITI; listed as Homo sapiens) [compound 244]” is “″+++″ (≥50% = +++)”; for “245 (SMIDDLLGV; listed as Homo sapiens) [compound 245]” it is “″+++″ (≥50% = +++)”; for “246 (LLWEVVSQL; listed as Homo sapiens) [compound 246]” it is “″+++″ (≥50% = +++)”.
“248 (FLFPNQYVDV; listed as Homo sapiens) [compound 248]”: the Peptide exchange result is listed as “″+++″ (≥50% = +++)”.
The entry for “249 (LLDGFLVNV; listed as Homo sapiens) [compound 249]” is “″+++″ (≥50% = +++)”; for “250 (ALSEEGLLVYL; listed as Homo sapiens) [compound 250]” it is “″+++″ (≥50% = +++)”.
The entry for “251 (ALYTGFSILV; listed as Homo sapiens) [compound 251]” is “″++″ (≥20% = ++)”; for “252 (LLIGTDVSL; listed as Homo sapiens) [compound 252]” it is “″+++″ (≥50% = +++)”.
For “253 (GLDAATATV; listed as Homo sapiens) [compound 253]”, the Peptide exchange result was “″++″ (≥20% = ++)”.
The result for “254 (TLLAFIMEL; listed as Homo sapiens) [compound 254]” reads “″+++″ (≥50% = +++)”; that for “255 (VLASYNLTV; listed as Homo sapiens) [compound 255]”, “″+++″ (≥50% = +++)”; that for “256 (FLPPEHTIVYI; listed as Homo sapiens) [compound 256]”, “″+++″ (≥50% = +++)”.
The result for “257 (SIFSAFLSV; listed as Homo sapiens) [compound 257]” reads “″+++″ (≥50% = +++)”; that for “258 (ELAERVPAI; listed as Homo sapiens) [compound 258]”, “″++″ (≥20% = ++)”.
“261 (YVLEFLEEI; listed as Homo sapiens) [compound 261]”: the Peptide exchange result is recorded as “″++″ (≥20% = ++)”.
For “262 (LLWGDLIWL; listed as Homo sapiens) [compound 262]”, the Peptide exchange result is on record as “″+++″ (≥50% = +++)”.
Turning to “263 (LLVSNLDFGV; listed as Homo sapiens) [compound 263]”, the Peptide exchange entry is recorded as “″+++″ (≥50% = +++)”.
Consider “264 (SLQEQLHSV; listed as Homo sapiens) [compound 264]”, for which the Peptide exchange entry is reported as “″+++″ (≥50% = +++)”.
For the substance “265 (LLFGGTKTV; listed as Homo sapiens) [compound 265]”, the Peptide exchange entry is recorded as “″++″ (≥20% = ++)”.
In the case of “266 (KITDTLIHL; listed as Homo sapiens) [compound 266]”, the Peptide exchange entry was “″+++″ (≥50% = +++)”.
As for “267 (ALQDFLLSV; listed as Homo sapiens) [compound 267]”, the Peptide exchange entry was “″+++″ (≥50% = +++)”.
The entry for “269 (RVLEVGALQAV; listed as Homo sapiens) [compound 269]” is “″++″ (≥20% = ++)”.
As to “270 (LLLDEEGTFSL; listed as Homo sapiens) [compound 270]”, the Peptide exchange result is given as “″++″ (≥20% = ++)”.
Regarding “271 (LVYPLELYPA; listed as Homo sapiens) [compound 271]”, the Peptide exchange entry is “″+++″ (≥50% = +++)”.
For the substance “272 (ALGNTVPAV; listed as Homo sapiens) [compound 272]”, the Peptide exchange entry is reported as “″+++″ (≥50% = +++)”.
On to “273 (NLFQSVREV; listed as Homo sapiens) [compound 273]”, for which the Peptide exchange result was “″++″ (≥20% = ++)”.
For the substance “274 (SLLFSLFEA; listed as Homo sapiens) [compound 274]”, the Peptide exchange result was “″++″ (≥20% = ++)”.
As to “275 (YLVYILNEL; listed as Homo sapiens) [compound 275]”, the Peptide exchange entry is listed as “″++″ (≥20% = ++)”.
“276 (ALFTFSPLTV; listed as Homo sapiens) [compound 276]”: the Peptide exchange entry is given as “″+++″ (≥50% = +++)”.
For the substance “277 (LLPPLESLATV; listed as Homo sapiens) [compound 277]”, the Peptide exchange entry is “″++″ (≥20% = ++)”.
The result for “278 (QLLDVVLTI; listed as Homo sapiens) [compound 278]” reads “″++″ (≥20% = ++)”.
The entry for “279 (ALWGGTQPLL; listed as Homo sapiens) [compound 279]” is “″++″ (≥20% = ++)”; for “280 (VLPDPEVLEAV; listed as Homo sapiens) [compound 280]” it is “″+++″ (≥50% = +++)”.
Consider “281 (ILRESTEEL; listed as Homo sapiens) [compound 281]”, for which the Peptide exchange entry is reported as “″+++″ (≥50% = +++)”.
The result for “282 (LLADVVPTT; listed as Homo sapiens) [compound 282]” reads “″+++″ (≥50% = +++)”.
With “284 (ILLSQTTGV; listed as Homo sapiens) [compound 284]”, the Peptide exchange result is recorded as “″+++″ (≥50% = +++)”.
“285 (QLLHVGVTV; listed as Homo sapiens) [compound 285]”: the Peptide exchange result was “″+++″ (≥50% = +++)”.
On to “286 (YLFPGIPEL; listed as Homo sapiens) [compound 286]”, for which the Peptide exchange entry is “″+++″ (≥50% = +++)”.
The result for “287 (FLNEFFLNV; listed as Homo sapiens) [compound 287]” reads “″+++″ (≥50% = +++)”.
The entry for “288 (NLINEINGV; listed as Homo sapiens) [compound 288]” is “″+++″ (≥50% = +++)”; for “289 (VLLEIEDLQV; listed as Homo sapiens) [compound 289]” it is “″++++″ (≥75% = ++++)”.
The result for “295 (VLDRESPNV; listed as Homo sapiens) [compound 295]” reads “″+++″ (≥50% = +++)”; that for “296 (FMEGAIIYV; listed as Homo sapiens) [compound 296]”, “″+++″ (≥50% = +++)”; that for “297 (VLADIELAQA; listed as Homo sapiens) [compound 297]”, “″+++″ (≥50% = +++)”.
Take “298 (VMITKLVEV; listed as Homo sapiens) [compound 298]”: the Peptide exchange result is “″+++″ (≥50% = +++)”.
For “299 (YLLETSGNL; listed as Homo sapiens) [compound 299]”, the Peptide exchange entry is reported as “″+++″ (≥50% = +++)”.
